# According to IntAct's records for PubMed 19805317:
# B1: Voltage-dependent calcium channel gamma-2 subunit (Homo sapiens), Q9Y698 (parent)
# chain: MGLFDRGVQMLLTTVGAFAAFSLMTIAVGTDYWLYSRGVCKTKSVSENETSKKNEEVMTHSGLWRTCCLEGNFKGLCKQIDHFPEDADYEADTAEYFLRAVRASSIFPILSVILLFMGGLCIAASEFYKTRHNIILSAGIFFVSAGLSNIIGIIVYISANAGDPSKSDSKKNSYSYGWSFYFGALSFIIAEMVGVLAVHMFIDRHKQLRATARATDYLQASAITRIPSYRYRYQRRSRSSSRSTEPSHSRDASPVGIKGFNTLPSTEISMYTLSRDPLKAATTPTATYNSDRDNSFLQVHNCIQKENKDSLHSNTANRRTTPV
# Variants of: B1
# Conditions: with gria1_rat Gria1, P19490
# Sequence of gria1_rat Gria1, P19490 (P19490 whole entry): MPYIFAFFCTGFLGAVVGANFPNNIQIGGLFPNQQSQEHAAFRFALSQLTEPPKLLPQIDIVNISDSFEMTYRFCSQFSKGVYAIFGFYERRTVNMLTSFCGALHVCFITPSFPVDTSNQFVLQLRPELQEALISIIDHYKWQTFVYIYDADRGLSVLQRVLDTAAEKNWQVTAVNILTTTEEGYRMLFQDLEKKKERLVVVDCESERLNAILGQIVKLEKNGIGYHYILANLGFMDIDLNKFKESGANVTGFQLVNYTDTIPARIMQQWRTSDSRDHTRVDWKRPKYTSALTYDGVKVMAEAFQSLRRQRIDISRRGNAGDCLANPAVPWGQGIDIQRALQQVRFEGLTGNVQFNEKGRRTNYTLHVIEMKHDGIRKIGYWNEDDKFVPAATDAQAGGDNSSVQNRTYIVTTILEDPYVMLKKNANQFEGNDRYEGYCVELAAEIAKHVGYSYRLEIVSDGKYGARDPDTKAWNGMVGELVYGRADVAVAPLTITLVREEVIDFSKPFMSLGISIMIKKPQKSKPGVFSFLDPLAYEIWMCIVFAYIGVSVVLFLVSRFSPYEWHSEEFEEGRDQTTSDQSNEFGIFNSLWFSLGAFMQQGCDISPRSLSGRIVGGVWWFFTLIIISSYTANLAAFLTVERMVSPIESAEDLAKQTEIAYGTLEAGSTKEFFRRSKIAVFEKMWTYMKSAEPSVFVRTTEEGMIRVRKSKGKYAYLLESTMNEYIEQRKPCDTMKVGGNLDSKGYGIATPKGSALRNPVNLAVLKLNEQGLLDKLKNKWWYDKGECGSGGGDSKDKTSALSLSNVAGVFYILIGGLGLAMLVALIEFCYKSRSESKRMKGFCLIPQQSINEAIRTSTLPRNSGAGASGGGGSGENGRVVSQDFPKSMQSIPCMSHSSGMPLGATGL
row,effect of a mutation on the interaction,Variant
1,decreasing interaction,C302S
